What was measured:
Test in all cases: cell-based or functional assay
[1] = target: HIV-1 Env of isolate 92TH021 (pseudovirus) (HIV-1)
[2] = target: HIV-1 Env of isolate 92UG005 (subtype D), on pseudovirus (HIV-1)
[3] = target: HIV-1 Env of isolate 92UG046 (subtype D), on pseudovirus (HIV-1)
[4] = target: HIV-1 Env of isolate 92WR021 (pseudovirus) (HIV-1)
[5] = target: HIV-1 Env of isolate 93UG077 (pseudovirus) (HIV-1)
[6] = target: HIV-1 Env of isolate 94UG103 (pseudovirus) (HIV-1)
[7] = target: HIV-1 Env of isolate MG RM-A-009 (pseudovirus) (HIV-1)
[8] = target: HIV-1 Env of isolate MG RM-A-013 (pseudovirus) (HIV-1)
[9] = target: HIV-1 Env of isolate MGRM-AE-001 (pseudovirus) (HIV-1)
[10] = target: HIV-1 Env of isolate MGRM-AE-005 (pseudovirus) (HIV-1)
[11] = target: HIV-1 envelope glycoprotein (Env) of isolate MGRM-Chronic-B-001, on pseudovirus (HIV-1)
[12] = target: HIV-1 Env of isolate 92BR020 (clade B) (HIV-1)
[13] = target: HIV-1 Env of isolate 92TH021 (clade AE) (HIV-1)
[14] = target: HIV-1 Env of isolate 93IN905 (clade C) (HIV-1)
[15] = target: HIV-1 Env of isolate 93UG077 (clade A) (HIV-1)
[16] = target: HIV-1 Env of isolate APV17 (clade B) (HIV-1)
[17] = target: HIV-1 Env of isolate CMU02 (clade AE) (HIV-1)
[18] = target: HIV-1 Env of isolate JRFL (clade B) (HIV-1)
[19] = target: HIV-1 Env of isolate MGRM-C-027 (clade C) (HIV-1)
[20] = target: HIV-1 Env of isolate NL43 (clade B) (HIV-1)
[21] = target: HIV-1 Env of isolate CAAN (HIV-1)
[22] = target: HIV-1 Env of isolate DU156 (HIV-1)
[23] = target: HIV-1 Env of isolate REJ04541 (HIV-1)
[24] = target: HIV-1 Env of isolate TR0.11 (HIV-1)
[25] = target: HIV-1 92UG005 Env (pseudovirus) (HIV-1)
[26] = target: HIV-1 92UG024 Env (pseudovirus) (HIV-1)
[27] = target: HIV-1 MGRM-A-010 Env (pseudovirus) (HIV-1)
[28] = target: HIV-1 92RW020 Env (clade A pseudovirus) (HIV-1)
[29] = target: HIV-1 94UG103 Env (clade A pseudovirus) (HIV-1)
[30] = target: HIV-1 APV13 Env (clade B pseudovirus) (HIV-1)
[31] = target: HIV-1 APV17 Env (clade B pseudovirus) (HIV-1)
[32] = target: HIV-1 JRFL Env (clade B pseudovirus) (HIV-1)
[33] = target: HIV-1 MGRM-A-010 Env (clade A pseudovirus) (HIV-1)
[34] = target: HIV-1 MGRM-C-026 Env (clade C pseudovirus) (HIV-1)

Sequence of 1443_C16 (PG16) (TCN-116) (antibody) (VH): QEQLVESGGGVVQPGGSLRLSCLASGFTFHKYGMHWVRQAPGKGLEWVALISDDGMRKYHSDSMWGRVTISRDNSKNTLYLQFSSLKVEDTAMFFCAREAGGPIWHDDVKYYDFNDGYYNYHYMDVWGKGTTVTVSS
Sequence of 1443_C16 (PG16) (TCN-116) (antibody) (VL): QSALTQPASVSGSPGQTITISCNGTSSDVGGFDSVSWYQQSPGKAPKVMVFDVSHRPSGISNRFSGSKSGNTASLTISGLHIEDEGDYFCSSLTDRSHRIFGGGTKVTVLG

VRC01 (antibody)
IC50 (µg/mL), pseudovirus neutralization [1]: 0.616 µg/mL | IC50, pseudovirus neutralization [2]: 0.576 µg/mL | IC50, pseudovirus neutralization [3]: 12.7 µg/mL | IC50 (µg/mL), pseudovirus neutralization [4]: 0.066 µg/mL | IC50 (µg/mL), pseudovirus neutralization [5]: 0.097 µg/mL | IC50 (µg/mL), pseudovirus neutralization [6]: 0.285 µg/mL | IC50 (µg/mL), pseudovirus neutralization [7]: 0.118 µg/mL | IC50 (µg/mL), pseudovirus neutralization [8]: 0.152 µg/mL | IC50 (µg/mL), pseudovirus neutralization [9]: 0.167 µg/mL | IC50 (µg/mL), pseudovirus neutralization [10]: 0.029 µg/mL

PGV04 (antibody)
IC50, pseudovirus neutralization [11]: 0.048 µg/mL

5147_N06 (PGT-130) (antibody)
neutralization IC50 [12]: 1.12 µg/mL | neutralization IC80 [12]: > 10 µg/mL | neutralization IC90 [12]: > 10 µg/mL | neutralization IC95 [12]: > 10 µg/mL | neutralization IC50 [13]: 0.0082 µg/mL | neutralization IC80 [13]: 0.0261 µg/mL | neutralization IC90 [13]: 0.0513 µg/mL | neutralization IC95 [13]: 0.0963 µg/mL | neutralization IC50 [14]: 0.0182 µg/mL | neutralization IC80 [14]: 0.272 µg/mL | neutralization IC90 [14]: 1.31 µg/mL | neutralization IC95 [14]: 5.48 µg/mL | neutralization IC50 [15]: > 10 µg/mL | neutralization IC80 [15]: > 10 µg/mL | neutralization IC90 [15]: > 10 µg/mL | neutralization IC95 [15]: > 10 µg/mL | neutralization IC50 [16]: > 10 µg/mL | neutralization IC80 [16]: > 10 µg/mL | neutralization IC90 [16]: > 10 µg/mL | neutralization IC95 [16]: > 10 µg/mL | neutralization IC50 [17]: > 10 µg/mL | neutralization IC80 [17]: > 10 µg/mL | neutralization IC90 [17]: > 10 µg/mL | neutralization IC95 [17]: > 10 µg/mL | neutralization IC50 [18]: 0.0346 µg/mL | neutralization IC80 [18]: 0.751 µg/mL | neutralization IC90 [18]: 5.72 µg/mL | neutralization IC95 [18]: > 10 µg/mL | neutralization IC50 [19]: 0.0052 µg/mL | neutralization IC80 [19]: 0.0318 µg/mL | neutralization IC90 [19]: 0.106 µg/mL | neutralization IC95 [19]: 0.464 µg/mL | neutralization IC50 [20]: > 10 µg/mL | neutralization IC80 [20]: > 10 µg/mL | neutralization IC90 [20]: > 10 µg/mL | neutralization IC95 [20]: > 10 µg/mL

1443_C16 (PG16) (TCN-116) (antibody)
IC50, pseudovirus neutralization (TZM-bl) [21]: 6.37 µg/mL | IC50, pseudovirus neutralization (TZM-bl) [22]: < 0.01 µg/mL | IC50, pseudovirus neutralization (TZM-bl) [23]: < 0.01 µg/mL | IC50, pseudovirus neutralization (TZM-bl) [24]: 3.61 µg/mL

5141_B17 (PGT-126) (antibody)
IC50 [25]: 0.0181 µg/mL | IC80 [25]: 0.145 µg/mL | IC90 [25]: 0.553 µg/mL | IC95 [25]: 2.45 µg/mL | IC50 [26]: > 10 µg/mL | IC80 [26]: > 10 µg/mL | IC90 [26]: > 10 µg/mL | IC95 [26]: > 10 µg/mL | IC50 [27]: 0.0033 µg/mL | IC80 [27]: 0.0137 µg/mL | IC90 [27]: 0.0316 µg/mL | IC95 [27]: 0.0687 µg/mL

4877_D15 (PGT-122) (antibody)
Neutralization by PGT-122, IC50 [28]: 0.0072 µg/mL | Neutralization by PGT-122, IC80 [28]: 0.0407 µg/mL | Neutralization by PGT-122, IC90 [28]: 0.113 µg/mL | Neutralization by PGT-122, IC95 [28]: 0.289 µg/mL | Neutralization by PGT-122, IC50 [29]: 1.46 µg/mL | Neutralization by PGT-122, IC80 [29]: 6.58 µg/mL | Neutralization by PGT-122, IC90 [29]: > 10 µg/mL | Neutralization by PGT-122, IC95 [29]: > 10 µg/mL | Neutralization by PGT-122, IC50 [30]: 0.992 µg/mL | Neutralization by PGT-122, IC80 [30]: 4.14 µg/mL | Neutralization by PGT-122, IC90 [30]: 8.6 µg/mL | Neutralization by PGT-122, IC95 [30]: > 10 µg/mL | Neutralization by PGT-122, IC50 [31]: 0.522 µg/mL | Neutralization by PGT-122, IC80 [31]: 1.76 µg/mL | Neutralization by PGT-122, IC90 [31]: 3.58 µg/mL | Neutralization by PGT-122, IC95 [31]: 6.92 µg/mL | Neutralization by PGT-122, IC50 [32]: 0.0471 µg/mL | Neutralization by PGT-122, IC80 [32]: 0.166 µg/mL | Neutralization by PGT-122, IC90 [32]: 0.342 µg/mL | Neutralization by PGT-122, IC95 [32]: 0.659 µg/mL | Neutralization by PGT-122, IC50 [33]: 1.68 µg/mL | Neutralization by PGT-122, IC80 [33]: > 10 µg/mL | Neutralization by PGT-122, IC90 [33]: > 10 µg/mL | Neutralization by PGT-122, IC95 [33]: > 10 µg/mL | Neutralization by PGT-122, IC50 [34]: 0.0089 µg/mL | Neutralization by PGT-122, IC80 [34]: 0.037 µg/mL | Neutralization by PGT-122, IC90 [34]: 0.0849 µg/mL | Neutralization by PGT-122, IC95 [34]: 0.181 µg/mL

Source: patent US20200024330A1
